From the nanobody polyreactivity screen of Harvey et al. (2022)

Test: yeast display, Sf9 membrane polyspecificity reagent, FACS + sequencing; frameworks hold sequencing errors
Summary of the method: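 Using colony PCR, genes from sorted yeast display clones were amplified, then sequenced on MiSeq at 2 × 250 and filtered by CDR length. The clones had been stained with 10% biotinylated, detergent-solubilized Sf9 membrane reagent for 1 hour at 4 °C and sorted by FACS into low and high (top ~1%) gates on anti-HA and streptavidin fluorescence. Polyreactivity labels come from the gate of origin.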

| Sequence | polyreactivity (PSR sort gate) |
| --- | --- |
| QVQLVESGGGLVQAGASLRLSCAASGRTFVGYAMGWYRQAPGKERELVAAISKSSGSTYYADSVKVRFTISRDNAKNTVYLQMNSLKPEDTAVYYCNAARRQCNRYTYDYWGQGTLVTVSS | high polyreactivity |
| QVQLVESGGGLVQAGASLRLSCAASGRTLGYYAMGWSRQEPGKERELVAAISRSGGSTYYADSVKGRFTISRDNAKNTVYLQINSLKPEDTAVYYCAATYGPSRYRYDYWGQGTQVTVSS | high polyreactivity |
| QVQLVESGGGLVQAGASLRLSCAASGSIFAAYTMGWYRQAPGTERELVAAISVSTVSTYYADSVKGRFTISRDNAKNTVFLQMNSLKAEVTAVYYCNADATDSYTEKDEHDSWGQGTQLTVSS | low polyreactivity |
| QVQLVESGGGLVQAGASLRLSCAASGSIFKDYAMGWYRQAPWKERDLLAAITSRTSTTYADSVKGRFTISRDNAKNTVYLQMNSLKPEDTAVYYCAVEDLGSEGWGWYKEMDYWGQGTQVTVSS | low polyreactivity |
| QVQLVESGGGLVQAGASLRLSCAASGSIFRGNAMGWYRQAPGKERQLVAAITRSGGRTYYADSVKGRFTISRDNAKNTVYLQMISMKPEDTAVYYCAAVSSYSRYRRTYYYWGHGTQVTVSS | high polyreactivity |
| QVQLVESGGGLVQAGASLRLSCAASGSTFDQYVMGWYRQAPCKERELVAAISRRGGSTYYADSVKGRFTISRDNEKNTVYLQMNSLQPEDTAVYYCAAPSYYRYDYWGQGTQVTVSS | high polyreactivity |
| QVQLVESGGGLVQAGASLRLSCAASGSTFPVYAMGWYRQAPGKERELVAAITGSGARTYYADSVKVRFTISRDNAKNTVYLQMNSLKPEDTAVYYCAKRTVIAVYGYPYRYGMNYWGQGTKVTVSS | high polyreactivity |
| QVQLVESGGGLVQAGASLRLSCSPSGRTFYYYAMGWYRPAPGKEREWVAAISQSGGSTYYADSVKGRFTISRDNAKKTVFLQMNSLKPEDTAVYYCKAYYGFGHRIYDFWGQGTQVTVSS | high polyreactivity |
| QVQLVESGGGLVQAGASLRLSSAASGSTFSRYAMGWYRQAPGKEREFVADITFRTSSTNYADSVKGRFTISRDNAKNTVYLQMNSLKPEDTAVYDCAADVIFTWLAYSTEYDYWGQGSQVTVSS | low polyreactivity |
| QVQLVESGGGLVQAGCILRLSCDASGRTFAPYAMGWYRQAPGKAWELVAAITNGGSPSYADSVKGRFTISRDNAKNTVYLEMNSLKREDTAVFYCAADIVSSTDYPFEYWGQGTQVTVSS | low polyreactivity |
| QVQLVESGGGLVQAGCRLRLSCAASGFIFCYNAMGLYRQAPGKERELVAAITTAGSTNYADSVKGRFTISRDNAKNTVYVQMNSLKPEDTAVYYCNKVQLRNRYPYRYGFGDVGYWGQGTQVTVSS | low polyreactivity |
| QVQLVESGGGLVQAGCRLRLSCAASGININAMGWYRQAPGKERELVAAISRGGSTYYADSVKGRFTISRDNAKNTVYLQMNSLKPEDTAVYYCAKLIGRWRLYHTFVKGDYWGQGTQVTVSS | high polyreactivity |
| QVQLVESGGGLVQAGCSILLSCAASGRIFDNYAMGWSRQAPGKERELVAASRYSDDATDYADSVKGRFTISRDNAKNTVYLQMNSLIPEDPAVYYCAADVKRYGWEYGYWGQGTQVTVSS | low polyreactivity |
| QVQLVESGGGLVQAGCSLGISCAASGSTVRGNAMGWYRQAPGKEREFVAAITVSGGSTYYADSVKGRFTLSRDNAKINVYVEMNSLKPEDNAVYYCAASVYKGWPTHYDYWGQGTQVTVSS | high polyreactivity |
| QVQLVESGGGLVQAGCSLLLICAASGRTFCFNTMGWYRQAPGKERELVASISGSGGRTYFADSVKGRFTISRDNEKNTVYFQMNSLKPEDTAVYYCAARRYSRDYDYWGQGTQVTVSS | high polyreactivity |
| QVQLVESGGGLVQAGCSLRCSCPDSGGIFTRYVMGWYRPAPGKEREMVAAISSRGGSTYYADSVKGRFTISRDNAKNTVYLQMNSLKPEDTAVYYSAAEQGRTSYRYYYWGQGTQVTVSS | high polyreactivity |
| QVQLVESGGGLVQAGCSLRISCSASGRTFIGYAMGSYRQAPGKERELVAAICRSGGSTYYADSVKGRFTISRDNAKNTVYLQMNSLKPEDTAVYYCAKQRRDDNGGYWGQATQVTVSS | high polyreactivity |
| QVQLVESGGGLVQAGCSLRLSCAAPGFTLKRYAMGWYRQAPGKERELVAAISRTGGSTYHADSVKGRFTITRDNAKNTVYLQMNSLKPEVTAVYYCAAATSPGIYDHWGQGTQLTVSS | high polyreactivity |
| QVQLVESGGGLVQAGCSLRLSCAASGATPQNAMGWYRQAPGKERELVAAISKRGGSTYYADSVKGRFTISRDNAKNTVYLQMISLKPEDTAVYYCAKSGRNYYDDDYWGQGTQVTVSS | high polyreactivity |
| QVQLVESGGGLVQAGCSLRLSCAASGFIFLTNGMGWYRQAPGTERELVAVITSSTGSTSYADSVKGRFTISRDIAKNTVYLQMNSLKPEDTAVYYCDDSTGVSWYYPSGSLDYWGQGTQVNVSS | low polyreactivity |
| QVQLVESGGGLVQAGCSLRLSCAASGFTFGSNEMGWYRPAPGKLRELVAAINYSGVRTYYADSVKGRFTISRDKAMNNVYLQMKSLKPEETAVDFCAKTRSKPISFDYWGQGTQVTVSS | high polyreactivity |

| Sequence | polyreactivity (PSR sort gate) |
| --- | --- |
| QVQLVESGGGLVQAGCSLRLSCAASGFTFQVYTMGSYRPAPGKERELVARISRRGGSTYYADSVKGRFTISRDNAKNTVYLQMNSLKPEDTAVYYCAADWYASSYRTYTFDYWGQGTQVTVSS | high polyreactivity |
| QVQLVESGGGLVQAGCSLRLSCAASGFTFYPYAMGWYRQAPGKERELVAAITRGGSTYYADSVKGRFTISRDNEKNTVYLQMNSLTPEDTAVYYCNAYWQGYGYDYWGQGTQVTVSS | low polyreactivity |
| QVQLVESGGGLVQAGCSLRLSCAASGFTFYQNVMGWYRQAPGKERELVASINRRGGSTYYADSVKGRFTISRDNAMNTVYLQKNSLKPEDTAVYYCAARTYRFYTRQLDYWGQGTQVTVSS | high polyreactivity |
| QVQLVESGGGLVQAGCSLRLSCAASGFTFYYNAMGWYRQAPGKERDLVAAISISGASTYYADSVKGRFTISRDNAKNTVYLQMNSLKPEDTAVFYCAKRTKGYTYHHEYGYWGQGTQVTVSS | low polyreactivity |
| QVQLVESGGGLVQAGCSLRLSCAASGITFVPYAIGWYRQAPGKDRELVAAITGGGSTNYADSVKGRFTISRDNAKNTVYLQMNSLNQEDTAVYYCAKHAYGYYYSRSDYWGQGTQVTVSS | low polyreactivity |
| QVQLVESGGGLVQAGCSLRLSCAASGRIFASNPMGWYRQAPGKERELVAGISRNGGSTFYADSVKGRFTISRDNAKNTVDVQMHSLKPEDTEVYYCARYFTHSGGYRDRIYYYWGQGTQVTVSS | low polyreactivity |
| QVQLVESGGGLVQAGCSLRLSCAASGRIFDGNAMGWYRQAPGKERELVAAISWTGGSTYYADSVKGRFTISRDNAKNTVYLQMNSLKPEDTAVYYCAADSGWWLEQWSWYDYWGQGTQVTVSS | low polyreactivity |
| QVQLVESGGGLVQAGCSLRLSCAASGRIFHLYAMGWYTQAPGKERELVAAITGRGGSTYYADSVKGRFTISRDNAKNTVYLQINCLKPEDTAVYYCASYEFGFLRYYSGRSYYYWGQGTQVTVSS | high polyreactivity |
| QVQLVESGGGLVQAGCSLRLSCAASGRIFWMNTMGRYRQAPGKERELVAAISFRSDDTYYADSVKGRFTISRDIAKNTVYLQMKSLKPEDTAVYYCNKAWFPYYFYRFDYWGQGTQVTVSS | high polyreactivity |
| QVQLVESGGGLVQAGCSLRLSCAASGRILFGYAMGWYRQAPGKERELVAAITGSGDSTYYADSVKGRFTISRDNAKNAVYLQLYSLKPEDTAVYYCATEEVYGQGNYWGHGTQVTVSS | low polyreactivity |
| QVQLVESGGGLVQAGCSLRLSCAASGRTFGTYTKGWYRQAPGKERELVAAIYTRDGSTYYADSVKGRFSISRDNAKNTVYLQMNSLKPDDTAFYYCNAVVRYYDWGYWDYDYWGQGTQVTVSS | low polyreactivity |
| QVQLVESGGGLVQAGCSLRLSCAASGRTFNGYAMGWYRQAPGKERELVAAIASEGDTNYADSVKGRFTISRDNAKNTVYLQMNSLKPEDTAVYYCNADITRIWHFKYDYWGQGTQVTVSS | high polyreactivity |
| QVQLVESGGGLVQAGCSLRLSCAASGRTFNYYAMGWYRQAPGKERELVAAISVSGVRTYYADSVKGRFTISRDNAKNSVYLQMNSLKPEDTAVYYCAGLYQSVRGYVYWGQGTQVTVSS | high polyreactivity |
| QVQLVESGGGLVQAGCSLRLSCAASGRTLFKYAMGWYRQAPGKERELVAVISWGGGITYYADSVKGRFTISRDNAKNTVYLKMNSLKPEDTAVYYCATDSHARFYRYYWGQGTQVTVSS | low polyreactivity |
| QVQLVESGGGLVQAGCSLRLSCAASGSFFSSNSMGWYRQAPGTERELVAAISRSGGNTYYADSVKGRFTISRDNAKNTVYLQMNSLKPEDTAVYYCAVVGRHGQKYDWGQGNQVTVSS | high polyreactivity |
| QVQLVESGGGLVQAGCSLRLSCAASGSIFARYAMGWSRQAPGKERELVAAINSTVSTNYADSVKGRFTISRDNAKNTVYLQMNSLKTEDTAVYYCAVDIVRGGRDSWGQGTQVTVSS | low polyreactivity |
| QVQLVESGGGLVQAGCSLRLSCAASGSIFDSKAMGWYRQAPGKERELVAAISSSGARTYYADSVKGRFTISRDNAKNTVYLQMNSLKPEDTAVYYCAAKPGYKSKMDYWGQGTQVTVSS | high polyreactivity |
| QVQLVESGGGLVQAGCSLRLSCAASGSIFGWYAMGWYRPAPGKERELVAAITLIGGSTYYADSVKGRFTISRDNAKNTVYLQMNSLKPEDTAVYYCNAVWYWGDMDYWGQGTQVTVSS | low polyreactivity |
| QVQLVESGGGLVQAGCSLRLSCAASGSILWHYAMGWYRPAPGKERELVAAISGSGRTNYADSVKGGFTISRDNAKNTVYLQLNSLKPEDTAVYYGARVHGTSESKYYYWGQGTQVTVSL | low polyreactivity |
| QVQLVESGGGLVQAGCSLRLSCAASGSTFYYYAMGWYRQAPGKERELVAAISNRDGRTYYADSVKGRFTISRDTAKNTVYFQMNSLKPEDSAVYYCNAYSYGHYYWGHGTQVTVSS | high polyreactivity |
